# Laboratory results: PMC11819540, “A new method for the reproducible development of aptamers (Neomers)”
# Target: Interleukin 6 (IL-6) (Homo sapiens, UniProt P05231 30-212)
# Assay: SPRi; SPRi running buffer: 400 mM 6-aminohexanoic acid, 2 mM TETA, 100 mM NaCl, pH 5.7 ± 0.1, 25 °C; aptamers immobilized on gold, protein in flow at 50 µL/min
# Conditions: protein: commercial
# Interleukin 6 (IL-6), sequence (P05231 30-212): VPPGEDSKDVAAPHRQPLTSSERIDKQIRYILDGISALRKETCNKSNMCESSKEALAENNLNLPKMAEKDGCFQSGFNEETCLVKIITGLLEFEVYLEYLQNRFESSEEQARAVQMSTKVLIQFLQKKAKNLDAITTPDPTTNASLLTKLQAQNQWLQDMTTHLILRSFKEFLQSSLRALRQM
row,Binder,Kd [nM]
1,"CAAGAGGGTTGAATTGCAACCATCGGC (ssDNA, thiol) [IL-6-7326.1]",27
2,"IL-6-6449 (ssDNA, thiol) DNA: TGTGTATAAGTCGCGAGGTTTGAATGCGAACCATCGGCGCCAACAAAACATTCAAACAGAAATCTACTAGTCAC",32.1
3,"GTCCTGAGGTGTGAATACAAACCATCGG (ssDNA, thiol) [IL-6-4202.1]",73.2
